Target: rhCMV (strain 68.1) US28 homolog(s): fractalkine-binding receptor protein expressed on rhCMV-infected rhesus dermal fibroblasts and on rhCMV virions
Test: homologous competition: unlabeled fractalkine displaces 125I-fractalkine from rhCMV-infected rhesus dermal fibroblasts, filter binding

Sequence of fractalkine (P78423 25-100 limits assumed): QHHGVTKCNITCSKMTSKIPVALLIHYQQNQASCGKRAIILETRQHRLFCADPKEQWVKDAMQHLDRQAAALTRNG

Question: How did the IC50 turn out when “fractalkine (from UniProt P78423 25-100) (ligand)” was run?
Answer: 0.044 nM

From patent US20030175681A1
